# Source: article PMC6163455, “β-Lactamase Tools for Establishing Cell Internalization and Cytosolic Delivery of Cell Penetrating Peptides” (Biomolecules, 2018)
# B1: TAT_SpyT (peptide)
# peptide: GRKKRRQRRRGASAHIVMVDAYKPTKG
# notes: canonical CPP TAT; source: synthetic peptide (Pepscan or Mimotopes)
# B2: 0169_SpyT (peptide)
# peptide: PLTQRTLQRGKKPKQRQNWKKARTSSAKTAPKTVVSRTTSQRKGASAHIVMVDAYKPTKG
# notes: phylomer CPP 0169, discovered from phylomer peptide libraries; source: synthetic peptide (Pepscan or Mimotopes)
# B3: 0167_SpyT (peptide)
# peptide: PSSTPATNVARPRLNPIRGHKFALAVPNSRTRGASAHIVMVDAYKPTKG
# notes: phylomer CPP 0167, discovered from phylomer peptide libraries; source: synthetic peptide (Pepscan or Mimotopes)
# B4: 1788_SpyT (peptide)
# peptide: LFVDKATPQIYYTPSESVTVKSKGKNRRKKSGASAHIVMVDAYKPTKG
# notes: phylomer CPP 1788, discovered from phylomer peptide libraries; source: synthetic peptide (Pepscan or Mimotopes)
# B5: 1746_SpyT (peptide)
# peptide: PLKPKKPKTQEKKKKQPPKPKKPKTQEKKKKQPPKPKRGASAHIVMVDAYKPTKG
# notes: source: synthetic peptide (Pepscan or Mimotopes)
# B6: 1869_SpyT (peptide)
# peptide: PPHPRPLPAPAQSRKKQKGRAGRGHEKTGASVLRGPQKPHPLPAQLRGASAHIVMVDAYKPTKG
# notes: phylomer CPP 1869, discovered from phylomer peptide libraries; source: synthetic peptide (Pepscan or Mimotopes)
# B7: 1746c27_SpyT (peptide)
# peptide: KKKKQPPKPKKPKTQEKKKKQPPKPKRGASAHIVMVDAYKPTKG
# notes: phylomer CPP 1746c27, discovered from phylomer peptide libraries; source: synthetic peptide (Pepscan or Mimotopes)
# B8: 0084_SpyT (peptide)
# peptide: RKQKSLQTKLAENPPVPRKKRQSRPRWKQWLQKGASAHIVMVDAYKPTKG
# notes: phylomer CPP 0084, discovered from phylomer peptide libraries; source: synthetic peptide (Pepscan or Mimotopes)
# Target: T1, SpyCatcher_β-lactamase protein ( | E. coli)
# T1 construct: N-terminal leader as printed; TEM-1 β-lactamase of Escherichia coli without its signal peptide; C-terminal tail as printed; Printed mass 42.4 kDa; also called SpyC_β-lactamase; source: E. coli BL21 (DE3) Gold, purified (IMAC, SEC)
# Assay: SpyTag/SpyCatcher covalent conjugation (isopeptide bond), analysed by SDS-PAGE; peptide:protein ratio 1.125:1 or 1.25:1, 50 µM SpyC_BLA; 50 mM HEPES, 200 mM NaCl, pH 7.0; 2 h at room temperature and/or overnight at 4 °C; conjugation efficiencies analysed on 4-12% NuPAGE Bis-Tris gels; conjugates then used for uptake into CHO-K1 and T47D cells
# Settings: both partners purified
row,Binder,binding result
1,B1,binds
2,B2,binds
3,B3,binds
4,B4,binds
5,B5,binds
6,B6,binds
7,B7,binds
8,B8,binds
